B1: Mitochondrial chaperone BCS1 (Homo sapiens), Q9Y276 (parent)
chain: MPLSDFILALKDNPYFGAGFGLVGVGTALALARKGVQLGLVAFRRHYMITLEVPARDRSYAWLLSWLTRHSTRTQHLSVETSYLQHESGRISTKFEFVPSPGNHFIWYRGKWIRVERSREMQMIDLQTGTPWESVTFTALGTDRKVFFNILEEARELALQQEEGKTVMYTAVGSEWRPFGYPRRRRPLNSVVLQQGLADRIVRDVQEFIDNPKWYTDRGIPYRRGYLLYGPPGCGKSSFITALAGELEHSICLLSLTDSSLSDDRLNHLLSVAPQQSLVLLEDVDAAFLSRDLAVENPVKYQGLGRLTFSGLLNALDGVASTEARIVFMTTNHVDRLDPALIRPGRVDLKEYVGYCSHWQLTQMFQRFYPGQAPSLAENFAEHVLRATNQISPAQVQGYFMLYKNDPVGAIHNAESLRR

The results in this text go back to IntAct's records for PubMed 18628306.

The variants in this test derive from B1. Particulars: with letm1_human LETM1, O95202.
Sequence of letm1_human LETM1, O95202 (O95202 whole entry): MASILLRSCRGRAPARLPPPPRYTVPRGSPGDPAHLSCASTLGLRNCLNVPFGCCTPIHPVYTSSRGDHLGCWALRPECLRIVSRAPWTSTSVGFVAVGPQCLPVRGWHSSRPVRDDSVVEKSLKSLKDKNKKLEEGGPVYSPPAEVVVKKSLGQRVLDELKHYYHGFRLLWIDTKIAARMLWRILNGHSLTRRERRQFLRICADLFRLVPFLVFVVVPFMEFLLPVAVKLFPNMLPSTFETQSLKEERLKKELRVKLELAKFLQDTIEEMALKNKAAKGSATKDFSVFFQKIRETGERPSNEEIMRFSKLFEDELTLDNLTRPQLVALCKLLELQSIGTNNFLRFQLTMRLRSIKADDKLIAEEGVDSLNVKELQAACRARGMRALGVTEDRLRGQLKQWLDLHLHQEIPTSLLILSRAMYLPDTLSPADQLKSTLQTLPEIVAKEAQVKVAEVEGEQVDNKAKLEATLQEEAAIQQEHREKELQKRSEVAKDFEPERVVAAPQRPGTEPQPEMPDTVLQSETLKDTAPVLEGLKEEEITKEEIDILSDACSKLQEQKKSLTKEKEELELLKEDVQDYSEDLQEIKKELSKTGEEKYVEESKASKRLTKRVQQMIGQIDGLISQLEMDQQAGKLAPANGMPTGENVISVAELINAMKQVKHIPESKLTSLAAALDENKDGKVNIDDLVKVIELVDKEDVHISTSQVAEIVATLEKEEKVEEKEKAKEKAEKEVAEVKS
Take MPLSDFILALKDNPYFGAGFGLVGVGTALALARKGVQLGLVAFRRHYMITLEVPARDRSYAWLLSWLTRHSTRTQHLSVETSYLQHESGRISTKFEFVPSPGNHFIWYRGKWIRVERSREMQMIDLQTGTPWESVTFTALGTDRKVFFNILEEAPELALQQEEGKTVMYTAVGSEWRPFGYPRRRRPLNSVVLQQGLADRIVRDVQEFIDNPKWYTDRGIPYRRGYLLYGPPGCGKSSFITALAGELEHSICLLSLTDSSLSDDRLNHLLSVAPQQSLVLLEDVDAAFLSRDLAVENPVKYQGLGRLTFSGLLNALDGVASTEARIVFMTTNHVDRLDPALIRPGRVDLKEYVGYCSHWQLTQMFQRFYPGQAPSLAENFAEHVLRATNQISPAQVQGYFMLYKNDPVGAIHNAESLRR [R155P]: the “effect of a mutation on the interaction” value was “disrupting interaction”.
